Reference: patent US20230126400A1 (Alector, published 2023)
Numbering of substitutions follows the chain as printed.

T1: human MS4A4A ECL1 peptide (amino acid residues 86-98) (human)
T1 construct: synthetic peptide
T1 peptide: CMASNTYGSNPIS

T2: human MS4A4A ECL2 peptide (amino acid residues 159-179), free (human)
T2 construct: synthetic peptide; also called huMS4A4A-ELC2 free-peptide
T2 peptide: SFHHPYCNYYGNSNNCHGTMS

B1: anti-MS4A4A antibody 4A-201 (murine) (antibody, V domains shown)
VH: QVQLRESGPGLVAPSQSLSITCTVSGFSLSSFGVTWVRQPPGKGLEWLGIIWGDGSTNYHSALISRLSISKDNSKSQVFLKLNRLQTDDTATYYCAKRDYDGREDVMGYWGQGTSVTVSS
VL: DIVMTQSQKFMSTSVGDRVSITCKATQNVRTAVAWYQQKPGQSPKPLIYLASNRHTGVPDRFTGSGSGTDFTLTITNVQSEDLADYFCLQHWSYPLTFGAGTKLEMK
notes: murine hybridoma antibody
B2: anti-MS4A4A antibody 4A-225 (antibody, V domains shown)
VH: B1 VH with R5K, S30T, T35N, V37F, Y59F, I64M, E104D
VL: B1 VL with F10I, T26S, N28T, P46A, T76S
notes: murine hybridoma antibody
B3: anti-MS4A4A antibody 4A-209 (murine) (antibody, V domains shown)
VH: EVKLLESGGGLVQPGGSLKLSCAASGFDFSRYWMSWVRQAPGKGLEWIGEIKSDSSTINYTPSLKDKFIISRDNAKNTLYLQMSKVRSEDTALYYCARRGFYDYDAWFAYWGQGTLVTVSS
VL: QIVLTQSPTLMSASPGEKVTMTCSASSSVTYMYWYQQKPRSSPKPWIYLTSNRASGVPTRFSGSGSGTSHSLTISYMEAEDAATYYCQQWSSNPPTFGAGTKLELR
notes: murine hybridoma antibody
B4: anti-MS4A4A antibody 4A-217 (murine) (antibody, V domains shown)
VH: EVKLVESGGGLVKPGGSLKLSCAASGFTFSSYGMSWVRQTPEKRLEWVAHISGGGTFTHYPDSVKGRFTISRDNAKNNLYLQMSSLRSEDTALYYCAREGAGTRFAYWGQGTLVTVSS
VL: DIQMTQTTSSLSASLGDRVTISCRPSQDISNSLNWYQQKPDGTVKLLIYSTSKLHSGVPSRFSGSGSGIDYSLTISNLEQEDIATYFCQQDYTLPWTFGGGTKLDVK
notes: murine hybridoma antibody
B5: anti-MS4A4A antibody 4A-205 (murine) (antibody, V domains shown)
VH: EVQLVESGGDLVKPGGSLKLSCAASGFTFSHYGMSWVRQTPDKRLDWVATIGRDGIHTDYRDSVKGRFTISRDNAKNTLYLQMGSLKSEDSAIFYCARHLYYGLYYSMDYWGQGTSVTVSS
VL: ENVLTQSPAIMSASPGEKVTMTCSASSSVSFMYWYQQKSSTSPKLWIYDTSKLASGVPGRFSGSGSGNSYSLTISSMEAEDVATYYCFQGSGYPLTFGSGTKLEIK
notes: murine hybridoma antibody
B6: anti-MS4A4A antibody 4A-208 (murine) (antibody, V domains shown)
VH: EVHLQQSGAEVVKPGASVKLSCTASGFNIKDTYIHWVMQRPEQGLEWIGRIDPANDNTKYDPKFQGKATITSDTSSNTAYLHLSSLTSEDTAVYYCARIAYGSWALDYWGQGTSVTVSS
VL: DIVMTQSQKFMSTSVGDRVIVTCKASQNVDTNVAWYQQKPGQSPKTLIYSASFRYSGVPDRFTGSGSGTDFTLSISNVQSEDLAEYFCQQYNSYPWTFGGGTKLEIK
notes: murine hybridoma antibody
B7: anti-MS4A4A antibody 4A-201, huIgG1 chimera (antibody, V domains shown)
VH: B1 VH
VL: B1 VL
B8: anti-MS4A4A antibody 4A-209, huIgG1 chimera (antibody, V domains shown)
VH: B3 VH
VL: B3 VL
B9: anti-MS4A4A antibody 4A-217, huIgG1 chimera (antibody, V domains shown)
VH: B4 VH
VL: B4 VL
B10: anti-MS4A4A antibody 4A-205, huIgG1 chimera (antibody, V domains shown)
VH: B5 VH
VL: B5 VL
B11: anti-MS4A4A antibody 4A-213, huIgG1 chimera (antibody, V domains shown)
VH: QVQLKESGPGLVAPSQSLSITCTVSGFSLTSYGVHWVRQPPGKGLEWLGVIWVGGSTNYNSALMSRLSISKDNSKSQVFLKMNSLQTDDTAMYYCARAVYYYGSSYYFDYWGQGTTVTVSS
VL: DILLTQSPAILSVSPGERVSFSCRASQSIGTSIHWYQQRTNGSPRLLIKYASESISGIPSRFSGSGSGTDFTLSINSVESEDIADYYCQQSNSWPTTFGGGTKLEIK
B12: anti-MS4A4A antibody 4A-207, huIgG1 chimera (antibody, V domains shown)
VH: EVNLEESGGGLVQPGGSMKLSCVASGFTFNNYWMNWVRQSPEKGLEWVAEIRLKSNNYATHYAESVKGRFTISRDDSKSSVYLQMNNLRPEDTAIYYCTTDPPMDYSGQGTPVTVSS
VL: QIVLTQSPAFMSASPGEKVTITCSASSSVSYMHWFQQKPGTSPKLWIYSTSNLVSGVPDRFSGSGSGTSYSLTISRMEAEYAATYYCHQRTSYPWTFGGGTKLEIK
B13: anti-MS4A4A antibody 4A-208, huIgG1 chimera (antibody, V domains shown)
VH: B6 VH
VL: B6 VL
B14: anti-MS4A4A antibody 4A-206, huIgG1 chimera (antibody, V domains shown)
VH: EVKLVESGGGLVKPGGSLKLSCAASGFTFSSYTMSWVRQTPEKRLEWVASLSSGGSTYYPDSVKGRFTISRDNARNILYLQMSSLRSEDTAMYYCAKDYYVSSYRWYFDVWGAGTTVTVSS
VL: DIQMTQITSSLSASLGDRVTISCRASQDISNYLNWYQQKPDGTVKLLIYYTSNLHSGVPSRFSGSGSGTDYSLTISNLEQEDIATYFCQQGKSFPWTFGGGTKLEIK

Target: T1, human MS4A4A ECL1 peptide (amino acid …)
Assay: peptide ELISA
Method: Briefly, 96-well polystyrene plates were coated with […] of synthetic free or BSA-conjugated peptides in coating buffer (0.05M carbonate buffer, pH9.6, Millipore Sigma Cat#C3041) overnight at 4° C. Coated plates were then blocked with ELISA diluent (PBS+0.5% BSA+0.05% Tween20) for 1-hour, washed 3×300 μL in PBST (PBS+0.05% Tween20, Thermo Cat#28352), and then the antibodies were added to the plate (50 μl/well). After 30 mins incubation (room temperature, with shaking), the plates were washed 3×300 μL in PBST. […] After a final set of washes (3×300 μL in PBST), 50 μL of TMB substrate (BioFx Cat#TMBW-1000-01) was added and the reaction was then quenched after 5-10 mins with 50 μL of stop solution (BioFx Cat#BSTP-1000-01). The quenched reaction wells were detected for absorbance at 650nm with a BioTek Synergy Microplate Reader using GENS 2.04 software.

| Binder | binding result |
| --- | --- |
| B1 | no binding |
| B2 | no binding |
| B3 | no binding |
| B4 | no binding |
| B5 | no binding |
| B6 | no binding |

Target: T2, human MS4A4A ECL2 peptide (amino acid …)
Assay: peptide ELISA, supernatant

| Binder | binding result |
| --- | --- |
| B1 | no binding |
| B2 | no binding |
| B3 | no binding |
| B4 | no binding |
| B5 | no binding |
| B6 | no binding |

The binders below were run against T3, human MS4A4A (human, UniProt Q96JQ5 1-239) (assay: FACS, K562 cells, supernatant).
Method: (§1) Positive clones identified in Example 22 above were expanded and then rescreened for specificity against U937, K562, and/or 300.19 cells stably overexpressing human MS4A4A or cyno MS4A4A and parental U937, K562, and/or 300.19 cells. These experiments were performed using supernatants from hybridoma clones which had undergone further expansion after initial selection. Briefly, stably transfected cells were labeled with LIVE/DEAD Fixable Aqua Dead Cell Stain Kit (ThermoFisher Scientific Cat#L34957) on ice for 30 minutes. […] 2×10⁵ cells were aliquoted per well in 96-well U-bottom plates and incubated with 50 μl of culture supernatant on ice for 30 minutes. […] Following this secondary incubation, the cells were again washed twice with ice-cold FACS buffer and resuspended in a final volume of 200 μl of FACS buffer. Analysis was performed on a FACS Canto system (BD Biosciences), with gates drawn to exclude dead (Aqua-positive) cells.
(§2) The APC ratio was calculated for each antibody as follows. […] For cell lines overexpressing human MS4A4A (h4A) or cyno MS4A4A (cy4A), the ration was calculated by comparing the binding measured to the binding observed on the corresponding parental cell lines.

| Binder | fold increase in MFI [fold] |
| --- | --- |
| B1 | > 2 |
| B2 | > 2 |
| B3 | > 2 |
| B5 | > 2 |
| B6 | > 2 |

These binders were tested against T3, human MS4A4A (assay: FACS, U937 cells, supernatant).
Method: as §1, §2

| Binder | fold increase in MFI [fold] |
| --- | --- |
| B4 | > 2 |
| B5 | > 2 |
| B6 | > 2 |

Each binder was assayed against T4, cynomolgus (cyno) MS4A4A (cynomolgus) (assay: FACS, 300.19 cells, supernatant).
T4 construct: also called cy4A; Cyno 4A
Method: as §1, §2

| Binder | fold increase in MFI [fold] |
| --- | --- |
| B1 | > 2 |
| B2 | > 2 |
| B3 | > 2 |
| B4 | > 2 |
| B5 | > 2 |
| B6 | > 2 |

The binders below were run against T3, human MS4A4A (assay: FACS, U937 cells overexpressing human MS4A4A, 5 ug/ml).
Method: (§3) Purified huIgG1 chimeric anti-MS4A4A antibodies were screened for their ability to differentially bind MS4A4A on U937 cells stably overexpressing human MS4A4A, U937 cells with human MS4A4A knocked out, and parental U937 cells. Differential binding to MS4A4A expressed on these cells was assessed by FACS analysis using 5 μg/ml of purified anti-MS4A4A chimeric antibodies, as described above.

| Binder | ratio of MFI over secondary antibody alone [ratio] |
| --- | --- |
| B7 | 8.9 |
| B8 | 19.8 |
| B9 | 23.6 |
| B10 | 25.3 |
| B11 | 13 |
| B12 | 10 |
| B13 | 19.9 |
| B14 | 18.5 |

Each binder was assayed against T3, human MS4A4A (assay: FACS, parental U937 cells (endogenous human MS4A4A, not overexpressed), 5 ug/ml).
Method: as §3

| Binder | ratio of MFI over secondary antibody alone [ratio] |
| --- | --- |
| B7 | 1.1 |
| B8 | 1.1 |
| B9 | 1.1 |
| B10 | 1 |
| B11 | 1.1 |
| B12 | 1.1 |
| B13 | 1.1 |
| B14 | 1.1 |
